Data on 20 sequences can be found in the DeepSol protein solubility set.

This data set can be described thus: soluble on expression in E. coli; label from the status in PepcDB or PDB records.
For the sequence “MKLLEVHILQTVAPSNLNRDDTGSPKDALFGGFRRARISSQAQKRAVRVAFRDWPLLSEEERAVRTKRLVEELLRRLAGVEEELARRAIENALNALGFGVKEGRTEYLLFLGNRELDALAQGIRENLEALSGEVKGKKKAEVPPELKKALERVLDGGKAVDLALFGRMLADRPELGVDAAAQVAHALSTHKVDREFDFYTAVDDLNPKEDTGAGMMGDVEFYSATLYRYAVVDLDKLVENLQGDKELALKGVLAFLEAFALTLPSGKQNSFAAHNPPLFVAFRAGEGMPRNLATAFEAPLRPKEEVPLSRLSAEALLKEWAKFDRVYGPLEPEWKGALDLTGAEGDGVPRLENLKALKEKAAEAVKALLGV”, the “soluble on expression in E. coli” value is on record as “soluble”.

With “MKLLHTADLHMDRSFEGLTGIPTALAKRLREANQQLLMNIVTVAIREAVDLVIFAGDTFHQSQTSISMQAQLMAALEQLKQAEIPVILTFGNHDYYKKDRYWFSFPDNVFLFEKEMVETLYFETKAGEQVAVSGFSYEHPWIDENKALEFPIKQAESDIHIGIYHGDTSRKAQQNYAPFTWKDLKATGYNYWALGHIHQPQIVSEQPLIVYPGTPQGHTKKEQSLQGVAVVTLSQNQATVQFEKVAEIDWTNEEVSLAQCRDTQSVLSYLETSLLTKWQAHQQQQLMALTLKETQHLDVTVVQAIVNGELLSYLQQQLLQKTQGDFFVYRLILQAEEPTKEPIYLAASPNLLTALEKTYLDPVIFEDTTKELLRYPEFAGIFSMDEQWRLESLRLAHEQINEDFTIQEDPL”, the “soluble on expression in E. coli” value is “not soluble”. As for “MKLRSWEFYDRIARAYDSMYETPKWKLYHRLIGSFLEEYLKNPCRVLDLGGGTGKWSLFLQERGFEVVLVDPSKEMLEVAREKGVKNVVEAKAEDLPFPSGAFEAVLALGDVLSYVENKDKAFSEIRRVLVPDGLLIATVDNFYTFLQQMIEKDAWDQITRFLKTQTTSVGTTLFSFNSYAFKPEDLDSLEGFETVDIRGIGVMEYPDERISEREETIFRLEQELSRDRNIIWKADHIFFVLKKKRGA”, the entry is “not soluble”; as for “MKLSPATKSFIGKTVDISTFAIQWGFVPFVVYLGFKKGAEPMPNGQILPLSAMSLLWG”, “not soluble”.

Turning to “MKLSPSMLDKLLRLGYSKLFADRYFQLWGERAIRIAEAMEKPLPRCFRVNTLKISVQDLVKRLNKKGFQFKRVPWAKEGFCLTREPFSITSTPEFLTGLIYIQEASSMYPPVALDPKPGEIVADMAAAPGGKTSYLAQLMRNDGVIYAFDVDENRLRETRLNLSRLGVLNVILFHSSSLHIGELNVEFDKILLDAPCTGSGTIHKNPERKWNRTMDDIKFCQGLQMRLLEKGLEVLKPGGILVYSTCSLEPEENEFVIQWALDNFDVELLPLKYGEPALTNPFGIELSEEIKNARRLYPDVHETSGFFIAKIRKL”, the “soluble on expression in E. coli” value is reported as “soluble”. To “MKMARMSKKKKLEMLDVARDEERNRIIRLLTEDDNFTPSLEPLIDNYLDAFIIYKTMFEEWKADGFAPTKTHKNKAGAVNEMKHPLAQQVETWNDKKNKMLEALGMTNKGKSVQKTPKNAENIQTDEPKDELAAHRNKWRKSK” belongs “not soluble”; to “MKMELLLIIITQDAYIGQRFTKRSSYLCGIYDKTANTMKEPFQIPTSKDIENLIGTDLYDVWNSLCQRIEKSYEMELLWNRGGKAWTYEYKYRKGGKTLCALYAKEKTLGFMVILGKDERAKFEIQRGQFSNEVQMIYDAATTFHDGKWIMFELKDTKLFNDMERLLLIKRKPNRKAE”, “soluble”; to “MKMFQKMCASTVIITTLLGIGGTVNSVHADSIEQQSKLGIDQETDKQIIVKFKADLKFPYEDGIEKQIQSQTNDKVLEDLLVEYPDVTFTRLFTSVSPEEIEDLEVKAPNNVSTSLLNYYILQTQNGEQKEELVDRLKKSCLIEDVYMKKQEKITPPEVQPSSVSLSPNNNPRFKQQGYLEAAPYGINAPFAWEVQGGKGSGITFVDMEYGWLLNHEDLVHQNIELMSGINIDQHVGHGTSVLGIVSSEDNEVGNIGIAPKAKAKVISQIRDNGQYNTADAILSAVNQLEAGDVLLLEAQASFDGYGDKYLPVEVQPDIFDAIRAGTDKGVVIIEAGANGWNDLDQFKDRNGKQILNRNSKDFKDSGAIMVGAGSSSFPHGRMWFSNYGSRIDVYGWGENVDTTTAEQSRSAVNLYTSSFSGTSSASPIIAGAATLVQSIAKENLGQPYRPSELRAILSNENTGTKSKDPYADQIGVLPDLKSILVNLGYGQRKPNGGNELQVTENEPNNERIQANKVNFHTPMKGTLHNSDRVDVFTFQMDSPENITISLLNEQNIGMTWVLHHESDLNNYVAYGENEGNVVKGTYHAKPGKYYLYVYKYENKDGSYVLNIK”, “not soluble”. To “MKMISTIQKKETVMVAPIPAKRGRKPAVATAPATGQVQSLTRGLKLLEWIAESNGSVALTELAQQAGLPNSTTHRLLTTMQQQGFVRQVGELGHWAIGAHAFMVGSSFLQSRNLLAIVHPILRNLMEESGETVNMAVLDQSDHEAIIIDQVQCTHLMRMSAPIGGKLPMHASGAGKAFLAQLSEEQVTKLLHRKGLHAYTHATLVSPVHLKEDLAQTRKRGYSFDDEEHALGLRCLAACIFDEHREPFAAISISGPISRITDDRVTEFGAMVIKAAKEVTLAYGGMR” belongs “soluble”; to “MKMLTVENLSKSYGEKPLFDGLSFSIAEGQRAGIIGVNGTGKSTLLKIIAGAEIPDTGDMTHSRGYTISYLSQQPEFDEQLTVLEQVFHGDTPLIRLLRDYEKALLHIEKDPSNEKVQEQLFAVQQRMDAMSVWEANANAKSLLTKLGITDFTATVGNLSGGQKKRIAMAQCFIETPDLLILDEPTNHLDHETVEWLEEYLARYTGAVLLVTHDRYFLDRVTNRIFELDNGKLYSYEGNYSTFLEAKALREEQELAQESKRQNLYRRELAWIRRGAKARSTKQKARIQRFEELKGQEGPAAKQSVDIALSGSRLGKKVLELKDVTKKFGDKTVLNNFNHIVKPGDRIGIIGANGSGKSSLLNMLAGKISPDSGEIEVGQTVKIAYYTQENEEMNLNQRMIEYIKEIAEVIHTTDGKVIGASQMLERFLFPPHSHGTPLGKLSGGERRRLYLLRILMGEPNVLLLDEPTNDLDPQTLTVLEDYLEDFSGVVLTVSHDRYFLDKVVDELFIFTGEGEVREFLGSYTDYLEMEKTRELIEKAEVQKEKKVVEEAPKQQRKRKLSYNEQREWETIEDTIAELEEKLESIGEELANVGSDFTKAQELSEAQQKTEEELEKTMERWSELSDIVEGLK”, “not soluble”; to “MKNIIACIDGSPTTFATCEASAWVASKINAPLILLHALDKTMRPVVSEFSGQIGLGSQEELLNELAELDEARSKVALKHGKKLLEEATEWVIKKGLTNVEQLQRHGSLLESLIDLENQLRVLVIGKLGEDQSSNKTIGSQLESIIRSIKSHTLVVTSPFSIPTSYLIAFDGSPTSEKLIEKAIKTPLLFGLDCHFVMVDDFAAKSAAFEKAAIKLKNAGLSVHEDILSGSVDEALLKYQKDHQIGMMVMGAYGHSTLRQFFLGSNTTKVLIKSEVPLLLIR”, “not soluble”.

Take “MKNNNLSDARKEKGLTQQELAEKLQVRKSTVSNWETGYSSPGISTAIQTAIILDKDVSFLFGNKVQETHTRVRD”: the “soluble on expression in E. coli” value is reported as “not soluble”. As for “MKNTQLLTSLRYVLLGALTVTTSVVQAESIAITNATVYTVAKKGVLFQATVMVDEGKITAVYGKDEVPESLSADTIIDAKERILTPGFIATHNLLGLVEVGAVSDTRDSSDKDADITFDASLAFNPKSTLIAYARKGGITSSLVMPYGGEDVITGQSFVVNLSGDFDSVIMPQNAVIVSLGASGKGSRATKLQTLSNELEDAQKALAKAEKVKASSKKEKEEKEAETPSRSELVLNELLSGDKPLIAYADRATDILALLKLKQKFNLNLILAGASDAVLVSDEIAKANVVVMMSAIDNLPSSFDSLHNSLTNVAKLTDAGVKVIISNSGESYNINQLRFDAGVAVANGVAATTALAAVTANVADSFNLNSGRIAVGKNADLVLWSSDPFEISTKVDAMWINGQAMSLKSRQDALRQRYIVETDMPRAYTK”, the “soluble on expression in E. coli” value is listed as “not soluble”. To “MKNYPVKKNDVIEVEIIDLTHEGLGVAKVDHYPLFIENALPGEKLEIKVLKTGKSFGYGKVLTVLKSSEQRVPVKDENFTKVGISPLQHLAYGAQLSFKTQQVENVMQRVAKLQEVPVLPTIGMNDPWHYRNKAQIPVRKIDNQLQTGFFRKNSHDLIPMEHFYIQDPEIDAAIVKIRDIMRKYSVKPYNESDNTGNLRHIVVRRGYHTGEMMVVLITRTPKLFPISKIVPDILEAIPEVVSIVQNVNPKRTNVIFGDETILLHGSEKITDTIFDLKFEISARSFYQVNPQQTEVMYQKVKEYAALTGNEIVVDAYCGIGTIGLTLAQDAKQVYGIEVIEEAVKDAENNAKLNNIENATFTAGLAEELLPKLVENGLQPDVVVVDPPRKGLDGQLVNTLIETQPERIVYVSCNPATLARDIALLTEGGYEAKEIQPVDNFPQTTHIESVTLLTKAVD” belongs “not soluble”. To “MKPENKIPVLTRLSDEMTAVVNFQQPGLPPWPADGDIETQRQYYLLERRFWNADAPSMTTRTCAVPTPYGDVTTRLYSPQPTSQATLYYLHGGGFILGNLDTHDRIMRLLARYTGCTVIGIDYSLSPQARYPQAIEETVAVCSYFSQHADEYSLNVEKIGFAGDSAGAMLALASALWLRDKHIRCGNVIAILLWYGLYGLQDSVSRRLFGGAWDGLTREDLDMYEKAYLRNDEDRESPWYCLFNNDLTRDVPPCFIASAEFDPLIDDSRLLHQTLQAHQQPCEYKMYPGTLHAFLHYSRMMTIADDALQDGARFFMARMKTPR” belongs “not soluble”; to “MKPGIVKFALNVWPPFWGAGIKILHISEDFRTVKVRLKLRWWNKNANRTQYGGSIFSLTDPIYSLMLMGILREEYYVWDKEASINFIKPGQSDLFAEFEITDGMLDEIYQMTRNGEKCFPEFITHVKDKQGNVVSEVQRKLYVRKLEHHHHHH”, “soluble”; to “MKPRDINKLIASKIFGYEIKDDNIIKDGRYRLGIPLYSQNIESAWQVVEKLEYDVKVTKTDLKPKYQVHVFVPGGVKMVFAETAPMAICKGALASVDIELQD”, “soluble”. To “MKQADELRFNEDGLIPAIVQDAASKEVLTLAYMNKESYEKTLETKETWFYSRSRQALWHKGETSGNTQAVKGIRYDCDQDALLVLVEPSGPACHTGSYSCFTKEQTEEQAADRFGIMNELERVIAERQAEMPEGAYTTYLFREGVDKILKKVGEEASEVIIAAKNRDHEELKWEAADLLYHLLVLLREQSLPLDDVLDVLKKRHSEIEELEHHHHHH” belongs “not soluble”; to “MKQITGVYTAPRPHWVGDGFPVRSLFSYQSHAQQLSPFLLLDYAGPHTFTPGNEKRGVGEHPHRGFETVTIVYSGEVEHRDSTGRGGVIGPGDVQWMTAGAGILHEEFHSDAFTRRGGELEMVQLWVNLPMKDKMTTPGYQSITHDVIPTVTLPDNAGVVRVIAGRYEETKGPAHTFSPLNVWDMRLQRNRQLTLAQPEGWSTALVVLKGNITVNGTTPVNEAQLVVLSQQGKTLHLEASSDASVLLLSGEPLNEPIVGYGPFVMNTKQEIAEAVRDFNSGRFGQI”, “not soluble”; to “MKQRILIVGAGFAGMWSALSAVRQLDRQGRDDVEVAVLAPQPELRIRPRFYEPDVQRMAAPLGELFAAVGVRFVQGSAQRIDVAGKRVEYRDAEGTLAQLDYDRLVLAAGSGVWRPASVAGIDAAFDVDQLEDALRLEAHLHALRDLPDSPARNTVVVAGGGFTGIETATEMPARLRAILGEKAALRVIVVDRGAAIGASMGADLSGLIAEASAELGVEWCLGRSVAAVDAEGVTLDDGQRIEAKTVVWTVGVRASTLTGQIPGERDAQGRLHVDRNLKVLGLDDVYATGDVARAATDDLGNHALMTCQHAIALGRSAGNNVAADLLGVEPIPYSQVKYVTCLDLGGWGAVFTEGWDRQVRFVREEGKKIKTEINGVWIYPPAADRAVALAAADPLIPVVALEHHHHHH”, “soluble”.
